Results taken from patent US20180118802A1 (published 2018).
Changes are numbered by the printed parent chain. Read-outs that look alike come from different tables or passages of the source.

T1: LRP2 CR89 V1047D (human, UniProt P98164 1022-1105)
T1 construct: also called YDWR
T1 sequence: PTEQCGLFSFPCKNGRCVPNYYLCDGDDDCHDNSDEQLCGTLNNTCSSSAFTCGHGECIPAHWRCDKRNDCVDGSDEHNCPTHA

T2: LRP2 CR89 V1047D R1088D (human, UniProt P98164 1022-1105)
T2 construct: also called YDWD
T2 sequence: T1 sequence with R68D

T3: LRP2 CR89 Y1042W R1088D (human, UniProt P98164 1022-1105)
T3 construct: also called WVWD
T3 sequence: T1 sequence with Y22W, D27V, R68D

T4: LRP2 CR89 Y1042W (human, UniProt P98164 1022-1105)
T4 construct: also called WVWR
T4 sequence: T1 sequence with Y22W, D27V

T5: LRP2 CR89 Y1042W V1047D R1088D (human, UniProt P98164 1022-1105)
T5 construct: also called WDWD
T5 sequence: T1 sequence with Y22W, R68D

T6: LRP2 CR89 Y1042W V1047D (human, UniProt P98164 1022-1105)
T6 construct: also called WDWR
T6 sequence: T1 sequence with Y22W

B1: RAP d3 (ligand, not shown: small tags and cut ends)
chain: LDRLRRVSHQGYSTEAEFEEPRVIDLWDLAQSANLTDKELEAFREELKHFEAKIEKHNHYQKQLEIAHEKLRHAESVGDGERVSRSREKHALLEGRTKELGYTVKKHLQDLSGRISRAR
notes: also called wild-type RAP d3
B2: MegaRAP1 d3 (ligand, not shown: small tags and cut ends)
chain: B1 chain with S13T, E17K, H49Y, E51K, K56A, K70E
notes: also called RAPv2A d3; RAP v2
B3: MAT CR12 (other)
chain: PCPGQFTCRTGRCIRKELRCDGWADCTDHSDELNCSCDAGHQFTCKNKFCKPLFWVCDSVNDCGDNSDEQGCS
notes: also called ST14 CR12; not shown: N-terminal hexahistidine/S-peptide tag of pET30(+)a

Tests used:
LRP2 CR89 V1047D = target: T1, LRP2 CR89 V1047D; experiment: solid-phase binding assay, CR protein coated, anti-RAP detection
Method: (§1) Solid phase binding assays—Purified, refolded CR protein (1 μg) was bound to Nunc Maxisorp™ 96-well plates in TBS pH 8 supplemented with 5 mM CaCl₂ (TBSC) overnight at 4° C. Wells were washed with TBSC and then blocked with TBSC containing 2% bovine serum albumin (BSA). RAP ligands were then incubated with the immobilized receptor at a range of concentrations for 2 hours in the above blocking buffer supplemented with 0.05% Tween-20 at room temperature. Control wells contained no added ligand. As an additional control, to determine whether the absence of calcium affected binding, 10 mM EGTA was included in the incubation medium for some samples. Wells were washed with TBSTC and bound ligands detected with polyclonal anti-RAP (BP41/42, 1:1,000, BioMarin). Excess primary antibody was removed and wells washed before incubation with the secondary antibody, HRP-conjugated goat anti rabbit IgG (Bio-Rad). After washing, TMB substrate solutions (Bio-Rad) were added to detect HRP. Color development was stopped with 1N HCl. Absorption at 450 nm was measured with a microplate spectrophotometer (Molecular Devices). Data were plotted and Kd values derived by non-linear regression with the assumption of single-site binding (GraphPad Prism).
(§2) One premise of this work was that amino acids at A, C, A′ and C′ within the calcium-binding loops of a CR pair were key determinants of binding affinity for RAP and would be similarly important for binding of RAP variants. To test this idea, mutant LRP2 CR89 were prepared in which the native, non-canonical residues at these positions were sequentially substituted with the non-native, canonical residues. As defined above, the A, C, A′, C′ string for LRP2 CR89 is YVWR. Mutants included LRP2 CR89 Y1042W (WVWR), LRP2 CR89 V1047D (YDWR), LRP2 CR89 R1088D (YVWD), LRP2 CR89 V1047D R1088D (YDWD), LRP2 CR89 Y1042W V1047D R1088D (WDWD), LRP2 CR89 Y1042W V1047D (WDWR), LRP2 CR89 Y1042W R1088D (WVWD). Binding to both RAP d3 and MegaRAP1 d3 were measured for each LRP2 CR89 mutant by solid-phase assay.

LRP2 CR89 [1] = target: T7, LRP2 CR89 (human, UniProt P98164 1025-1102); experiment: as above
T7 construct: domain: CR89; also called YVWR; not shown: N-terminal hexahistidine and S-peptide of pET30(+)a
Method: as §1, §2

LRP2 CR89 V1047D R1088D = target: T2, LRP2 CR89 V1047D R1088D; experiment: as above
Method: as §1, §2

LRP2 CR89 R1088D = target: T8, LRP2 CR89 R1088D (human, UniProt P98164 1022-1105); experiment: as above
T8 construct: also called YVWD
Method: as §1, §2

LRP2 CR89 Y1042W R1088D = target: T3, LRP2 CR89 Y1042W R1088D; experiment: as above
Method: as §1, §2

LRP2 CR89 Y1042W = target: T4, LRP2 CR89 Y1042W; experiment: as above
Method: as §1, §2

[2] = target: T5, LRP2 CR89 Y1042W V1047D R1088D; experiment: as above
Method: as §1, §2

LRP1 CR3-5 [3] = target: T9, LRP1 CR3-5 (human, UniProt Q07954 852-973); experiment: as above
T9 construct: range 852-973; not shown: N-terminal hexahistidine and S-peptide of pET30(+)a
Method: as §1

LRP1 CR3-5 [4] = target: T9, LRP1 CR3-5; experiment: as above; remark: listed apart in the source
Method: (§3) Wells were washed with TBSTC and bound ligands detected with polyclonal anti-RAP (BP41/42, 1:1,000, BioMarin). Excess primary antibody was removed and wells washed before incubation with the secondary antibody, HRP-conjugated goat anti rabbit IgG (Bio-Rad). After washing, TMB substrate solutions (Bio-Rad) were added to detect HRP. Color development was stopped with 1N HCl. Absorption at 450 nm was measured with a microplate spectrophotometer (Molecular Devices). Data were plotted and Kd values derived by non-linear regression with the assumption of single-site binding (GraphPad Prism).
(§4) Next, the binding of RAP d3 and MegaRAP1 d3 proteins to LRP1 CR3-5 and LRP2 CR89 was assessed. […] In all cases, 10 mM EGTA prevented binding of both RAP d3 and MegaRAP1 d3 to CR proteins. Since calcium was the only divalent metal ion present in the binding buffer, this observation is consistent with both RAP d3 and MegaRAP1 d3 binding to calcium-loaded CR pairs. […] Therefore, wild-type RAP d3 and MegaRAP1 d3 have inverted binding preferences for these two receptor fragments.

LRP2 CR89 [5] = target: T7, LRP2 CR89; experiment: as above; remark: listed apart in the source
Method: as §3, §4

VLDLR CR6-8 = target: T10, VLDLR CR6-8 (human, UniProt P98155 235-358); experiment: as above
T10 construct: range 235-358; not shown: N-terminal hexahistidine and S-peptide of pET30(+)a
Description: (§5) Alternatively, the affinity differences between MegaRAP I d3 and MegaRAP1 d3 E270K may have been insufficient to alloW the latter to predominate upon iterative panning. A double revertant, T213S, E270K, had binding behavior that was not distinguishable from MegaRAP1 d3 in our assays. […] The binding behavior of the K251E, E270K double revertant implies a strong dependence of the affinity of MegaRAP1 d3 for LRP2 CR89 on the E251K mutation. […] Therefore, the K256A mutation in MegaRAP1 d3 is a crucial determinant of the ability of this variant to discriminate between the two receptor fragments, exerting its effect by negatively impacting affinity for LRP1 CR3-5 while at the same time improving affinity for LRP2 CR89.

LRP1 CR3-5 [6] = target: T9, LRP1 CR3-5; experiment: as above; remark: listed apart in the source
Description: as §5

LRP2 CR89 Y1042W V1047D = target: T6, LRP2 CR89 Y1042W V1047D; experiment: as above
Method: as §1, §2

RAP d3 = target: B1; experiment: solid-phase binding assay, ligand at 80 nM, CR protein coated (FIG. 7)
Method: as §1
The apparent dissociation constant for binding of VRAP1 d3 to VLDLR CR78 was determined to be 44±9 nM. […]

T9 sequence (Q07954 852-973, form in doubt): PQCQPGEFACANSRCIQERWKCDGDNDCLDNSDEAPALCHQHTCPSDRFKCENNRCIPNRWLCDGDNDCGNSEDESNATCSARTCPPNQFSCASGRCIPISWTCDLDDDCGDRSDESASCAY
T7 sequence (P98164 1025-1102): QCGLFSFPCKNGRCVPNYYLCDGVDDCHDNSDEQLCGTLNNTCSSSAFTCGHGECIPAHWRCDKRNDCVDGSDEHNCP

Binder	% max bind (LRP2 CR89 V1047D) [%]	% max bind (LRP2 CR89 [1]) [%]	% max bind (LRP2 CR89 V1047D R1088D) [%]	% max bind (LRP2 CR89 R1088D) [%]	% max bind (LRP2 CR89 Y1042W R1088D) [%]	% max bind (LRP2 CR89 Y1042W) [%]	% max bind [2] [%]	Kd (LRP1 CR3-5 [3]) [nM]	% max (LRP1 CR3-5 [4]) [%]	Kd (LRP1 CR3-5 [4]) [nM]	% max (LRP2 CR89 [5]) [%]	Kd (VLDLR CR6-8) [nM]	Kd (LRP1 CR3-5 [6]) [nM]	binding result (LRP2 CR89 V1047D)	binding result (LRP2 CR89 V1047D R1088D)	binding result (LRP2 CR89 Y1042W R1088D)	binding result (LRP2 CR89 Y1042W V1047D)	binding result (LRP2 CR89 Y1042W)	binding result [2]	binding result (RAP d3)
B1	6	7	6	7	16	9	15	16	76	16	5	> 300	11							
B2						5								no binding	no binding	no binding	no binding	no binding	no binding	
B3																				no binding (tested: 80 nM)
